This data set can be described thus: soluble on expression in E. coli; label from the status in PepcDB or PDB records.
“MGKAKVPASKRAPSSPVAKPGPVKTLTRKKNKKKKRFWKSKAREVSKKPASGPGAVVRPPKAPEDFSQNWKALQEWLLKQKSQAPEKPLVISQMGSKKKPKIIQQNKKETSPQVKGEEMPAGKDQEASRGSVPSGSKMDRRAPVPRTKASGTEHNKKGTKERTNGDIVPERGDIEHKKRKAKEAAPAPPTEEDIWFDDVDPADIEAAIGPEAAKIARKQLGQSEGSVSLSLVKEQAFGGLTRALALDCEMVGVGPKGEESMAARVSIVNQYGKCVYDKYVKPTEPVTDYRTAVSGIRPENLKQGEELEVVQKEVAEMLKGRILVGHALHNDLKVLFLDHPKKKIRDTQKYKPFKSQVKSGRPSLRLLSEKILGLQVQQAEHCSIQDAQAAMRLYVMVKKEWESMARDRRPLLTAPDHCSDDA”: the “soluble on expression in E. coli” value is “soluble”. Next, “MGKGGNYVTVAASEVDELRRKNGEMEKAVEEMKKEMLQLWRRTQVAEEAEERLCSQLAELEAESLDQARDYHSRIIFLMNELSRLSSDSASASP”: “soluble”; “MGKGKNKMHEPKNGRPQRGANGHSSRQNHRRMEMKYDNSEKMKFPVKLAMWDFDHCDPKRCSGKKLERLGLIKSLRVGQKFQGIVVSPNGKGVVCPDDLEIVEQHGASVVECSWARLEEVPFNKIGGKHERLLPYLVAANQVNYGRPWRLNCVEALAACFAIVGRMDWASELLSHFSWGMGFLELNKELLEIYQQCTDCDSVKRAEEEWLQKLEKETQERKSRAKEEDIWMMGNINRRGNGSQSDTSESEENSEQSDLEGNNQCIEYDSLGNAIRIDNMKSREAQSEESEDEESGSKENGEPLSYDPLGNLIR”: “not soluble”. Turning to “MGKKAHGGKMKPEIDENGTLLVPPPRTIANQDHFHRLNYLYQISAYQTRARQKARTDAHTPLARNYIKSMDLISKKTKTSLLPTIKRTICKKCHRLLWTPKKLEITSDGALSVMCGCGTVKRFNIGADPNYRTYSEREGNLLNS”, the “soluble on expression in E. coli” value was “soluble”. As for “MGKKKNSNKSAAAAPAVKHNDRWSSIELGEAKSAAVSHYKEPSKEPKFVHPAKLEKVKRIHDGLNIDRVLSHGPVPKQNGGTKRKHVEVTTQKLENKKPKVEVKKEDEKSKNKKMKNQNKHTALVQNETSTRSTYFVEEPDNENKVTLISNGREIAFKKTEVVESDDEQMIGLDSDEELEDEDETDIDEDEMMIDPKDIERYINFESVEDEEDMEDEEIEDEEFEDEEFEDEEEEADEQEEEEEDVSDEESVVSEMDADSDDEGFIAGKDREAHVISKDKFTRNAPAVDFDKFPFTDEDSVVTSSRAFGFMISPCDVQTFFDKFYQSNVLVVRRKQPTYFGNLFSTARLGELLEKNHLEYGRNINIAQYKNGVRTTLNGQGRAYPQIVKQHLHNMCSVQLVNPQTYDDRIWYLCEVIQEQFGCFVGANTYLTPAGSSGFAPHWDEIDAFLLQVEGRKYWRVWAPESAEEELPLESSDNFTEDDMKGREPVFEGWIEKGDMIYIPRGYIHQARTDSKVHSLHVTVSTGRQWSFANLMEKVVPEAIGVLTDTRHKLRRGLPTGLFDMGGVIDLDYSQEDHFVEKFKMVVDRHMSMLRNLVADQLLESSVDSLAKEFMKQALPPRLTEQEKKLSVLGSSTNLLGDDLVDFTARTKVRLIRRHTQRLLMESEDACFISHRINNSRLFEGRPEQIVEYPISGIDAYRVLSNSYPEWRTLYEIFSLRETKTKSRKENLAAIQLLFQIGVLLVKN”, the “soluble on expression in E. coli” value is on record as “not soluble”. For “MGKNLLREKKRLIRQKILFLTGENESWMKNPEIVKEVQRLSKQLESDLIADKRPLPSLDPDKLTKEKYQHFLDLGYQVGDIKKALGLGTTTFQNWRKANGIENKINRKQKKEESKLMKFNIHTASLLLPGTFGAEGKECITISKSGLALSGPVVRRLNKPEWIQLYLDESRLALFVIPCKATDEGARSCVNPKSKKKAGYRKSWSGSILEKVAKASKMDIENHRYHVEPESVEGYPTALGFDLTKAVKN”, the “soluble on expression in E. coli” value was “not soluble”. As to “MGKTKPVLQCTLCGALVDSGNGLPMHEETYAVLRVEAMPRQWRQALENVMAKTIASPPPSAMPGTDPLEAVWFTPWRTNSWQPNTVDCRQVLNGTLDELRVLSQEVAALAATQGFSACVEFV”, the “soluble on expression in E. coli” value was “not soluble”. Next, “MGKTLFEKVWNAHVVTEVKDGPSILYIDKQLIHEVTSPQAFAGIEKRGIGVFRPERTLATPDHNVPTKGQNLPIVEDLSRFQVDKLTENCNKFGVTLYGLGHASQGVVHVVGPETGTTLPGMTIVCGDS”: “not soluble”; “MGKVILVTGVSRGIGKSIVDVLFSLDKDTVVYGVARSEAPLKKLKEKYGDRFFYVVGDITEDSVLKQLVNAAVKGHGKIDSLVANAGVLEPVQNVNEIDVNAWKKLYDINFFSIVSLVGIALPELKKTNGNVVFVSSDACNMYFSSWGAYGSSKAALNHFAMTLANEERQVKAIAVAPGIVDTDMQVNIRENVGPSSMSAEQLKMFRGLKENNQLLDSSVPATVYAKLALHGIPDGVNGQYLSYNDPALADFMP”: “soluble”. Take “MGLHRLIYLSCATDGLSYPDLRDIMAKSEVNNLRDGITGMLCYGNGMFLQTLEGDRQKVSETYARILKDPRHHSAEIVEFKAIEERTFINWSMRLVQLGEMDSDTIRRLRLKYSPAATFQPRSMTAEQCFRFLKELYDMSQGS”: the “soluble on expression in E. coli” value was “soluble”. Under “MGLKEKLIRKGKYIWELPKETIEGQRVPVILYLSDALFELLEEDALRQAANAATLPGVEKAIYVMPDVHVGYGFPVGGVMATNTETGIISPGSIGYDINCGVRLIATNLKAVDVAPRIKEIMNNMLKNVPAGVGSTSEIKLSKSQMKEVLVKGAGWAVEHGFGFPEDLQHIEGFGALPNADPEKASHEAYERGSDELGTVGSGNHFVEVQAVEQIYEPEIAEKLGIWEGQVMVMVHSGSRGFGHQVCTDYLRVALKVRDKYKIKLPDPQLACMPFNSPEGQAYFKAMNAAANYAFANRQILGFKAANTVRKTLGISWEEFGYRLIYDHAHNIGKVEKHEVDGKKVEVIVHRKGATRAFPPYNPEVPPAYREVGQPVIIPGDMGRASFLLVGQTNSMKMSFGTACHGAGRVMSRRQAKKYVKEVGLEKVIGNLVVVARGKGTIMEEIPQAYKDVTEVVRVIDELGIAKAVARLKPLGTLKG” stands “soluble”. Under “MGLKKCGLNLSRDNKELKPHGTIDFPCAGYSSCYRDSEDDIIPWHWHPELEILYIKSGNLKLKLPEKTFHLTPGDGFIVNSNVLHYAVAEPLCELHSIVFSPLLITGWEGSVFAEKYIGPLVRCPSFDGCSLNCLFPEPEMFENLFTAAFHALAEDLPGYEFTLREALSKLCYALCLRFGPETGDDCPAPSPDAERLRRMLDYIHCHYSEPLKLSQIAEAADIGERECLRCFSRMIQVSPIQYLLKYRVNQSASLLLREPGKNITAIAGGCGFDSPGNFSRIFKRYYKCSPKEYRSRNKE” stands “soluble”. Next, “MGLLVNGIWQDQWYDTESTGGRFVRHDSQFRHWITPDGSPGPTGHGGFKAEAGRYHLYVSLACPWAHRTLIFRKLKGLEGMIDVSVVHWLMRENGWTFAPGPGVMPDPLFNAEYLYQIYTRADAQYSGRVTVPILWDKQKQTIVNNESSEIIRIFNSAFDGLGAKSGDYYPKALRTQIDALNDRIYHTINNGVYKCGFATTQTAYEEAIAPLFESLDWLEGILQGHQYLTGDEITEADWRLFTTLIRFDVVYVGHFKCNLRRIQDYPNLWRYLRDLYHQPGIAETVNFQHIKGHYYESHLNINPTGIVPMGPALDLSLALEHHHHHH”: “not soluble”; “MGLSVMIMLMRSVKIKYLNLASLSNDRSADTSAAPHSPLRTRLVHPSLAFCPDVPSGKCRFAKFYGIGREPHRIRGADVLLFEGLKRVR”: “not soluble”; “MGMIGYFAEIDSEKINQLLESTEKPLMDNIHDTLSGLRRLDIDKRWDFLHFGLTGTSAFDPAKNDPLSRAVLGEHSLEDGIDGFLGLTWNQELAATIDRLESLDRNELRKQFSIKRLNEMEIYPGVTFSEELEGQLFASIMLDMEKLISAYRRMLRQGNHALTVIVG”: “soluble”. Consider “MGNQCQNGTLGSDYHNRFPREHAVGYVQGDSYLDLKKFDDTWPEVNNFKPTAASILRRGLDPTSINVLGRKTADLREHYIIGRKLGQGQFGTTYLCTEINTGCEYACKTIPKRKLITKEDVEDVRREIQIMHHLSGHKNVVAIKDVYEDGQAVHIVMELCAGGELFDRIQEKGHYSERKAAELIRIIVSIVAMCHSLGVMHRDLKPENFLLLDKDDDLSIKAIDFGLSVFFKPGQAFTELVGSPYYVAPEVLHKRYGPESDVWSAGVILYVLLSGVPPFWAETQQGIFDAVLKGHIDFQSDPWPKISDSAKDLIRKMLSHCPSERLKAHEVLRHPWICENGVATDQALDPSVISRLKQFSAMNKLKKLALRVIAERLSEEEIAGLREMFKAVDTKNRGVITFGELREGLRRFGAEFKDTEIGDIMEAAHNDNNVTIHYEEFIAATLPLNKIEREEHLLAAFTYFDKDGSGYITVDKLQRACGEHNMEDSLLEEIISEVDQNNDGQIDYAEFVAMMQGSNVGLGWRTMESSLNVALRDAPQVH”, for which the “soluble on expression in E. coli” value is on record as “not soluble”. For “MGNSYITKEDNQISATSEQTEDSACLSAMVLTTNLVYPAVLNAAIDLNLFEIIAKATPPGAFMSPSEIASKLPASTQHSDLPNRLDRMLRLLASYSVLTSTTRTIEDGGAERVYGLSMVGKYLVPDESRGYLASFTTFLCYPALLQVWMNFKEAVVDEDIDLFKNVHGVTKYEFMGKDKKMNQIFNKSMVDVCATEMKRMLEIYTGFEGISTLVDVGGGSGRNLELIISKYPLIKGINFDLPQVIENAPPLSGIEHVGGDMFASVPQGDAMILKAVCHNWSDEKCIEFLSNCHKALSPNGKVIIVEFILPEEPNTSEESKLVSTLDNLMFITVGGRERTEKQYEKLSKLSGFSKFQVACRAFNSLGVMEFYK”, the “soluble on expression in E. coli” value is “soluble”. For “MGPTQETYTIVRYQSGTFSKQLDEIVTESPITIKLNGEEYVTVVCTPNYIEDMVIGFLISEGIISSYNDVEELWVQKDNGIVHVKSSKVNPLYQTLYNKRYVTSCCGKGRQGFIFVNDAAKAKDLHDIHVKITPEECFYLMNTLQQSSTTFRQTGGVHNTALCDRNKILLSRMDIGRHNALDKIYGHCLRNDISVKGKIIAFSGRISSEILLKVSKIGCEIVLSKSAPTKLALQLAHDLGITVVGFIRNESCNIYTHPHRIDGYQSNN”, the “soluble on expression in E. coli” value is “not soluble”. As for “MGPYFGKVSEVSSNSQTTYLPESADATQVQEQLGDFTDSESIPAIVVMVSDEPLTQQDITQLNEVVAGLSELDIVSDEVSPAIPSEDGRAVQVFVPLNPSAELTESVEKLSETLTQQTPDYVSTYVTGPAGFTADLSALEHHHHHH”, the “soluble on expression in E. coli” value is “not soluble”.

As for “MGQNIELHESLIRLIPYGEVPLPTVEQVQEHIYSYLNYLSESAIEQDVLFRVLLSTEERETLARAALGLTLEEISDFLRLTVKERLSSNGITIDATVTPMVVEYKTRLLSQMGIELGKPALYSFGGLDLLREWLNRRRKLFTQEARNLQLPQPKGILLEHHHHHH”, the “soluble on expression in E. coli” value is on record as “not soluble”.

For “MGRGSEFGIFAFTDSVFEITESVGRFELKVMRYSGARGTVIVPYWTENDTATESKDYEGARGELVFENNESEKFIDLFILEESSYEKDVSFKVHIGEPRLAPDDGLAAKIKEVEKKPVQDLTELDRILLLSKPRNGELTTAYVRIRESQEFKATVDKLVAKA”, the “soluble on expression in E. coli” value was “soluble”.

Turning to “MGRIAVIGAGVAALAAARSLVLAGRRPLLIAPDREVISRGETLSPAAAALLDRLQWADLLDADSALPSEGRFSVWGDATLRQAAQGVGAWHLDRARFERQMRAKLDNDAIECHPIIVTMLVHHCDGVVLELGDGRVVFADAAIDCSGRAAVSSGAAAGRRRTDRLVAVWRVLDLPDDTEPAAATLIEAVPLGWWYMAPLPGDRMMLGLFTDTDLVPPGAAQDGATWTGLAASTVAIAPRLRSLGLDVSAAREPPQVAPAATVTASRLIEGRILRAGDAAAALDPLGANGLATALWSGMAAAEAALTLTEGEPERADAYERDYLQGIAQHLVSQQAMYAAEPRFADAPFWQRRRAVVSSHPQKETLPLEHHHHHH”, the “soluble on expression in E. coli” value is given as “not soluble”.

(Values after the DeepSol protein solubility set.)
